Consider three molecules from patent publication US10287569B2, “Enzyme for biosynthesis of isoprene and isopentenyl, and mutant thereof” (INSTITUTE OF MICROBIOLOGY, CHINESE ACADEMY OF SCIENCES, priority 2016, dated 2019).

Positions count from the first letter of the chain named. Numbers in names are those of the source.

Data set [1] concerns the target T1, alkaliphilic Bacillus sp. N16-5 IspH protein, wild type, SEQ ID NO: 2 (Salipaludibacillus agaradhaerens, UniProt A0A9Q4B1R3).
T1 sequence (A0A9Q4B1R3 1-318): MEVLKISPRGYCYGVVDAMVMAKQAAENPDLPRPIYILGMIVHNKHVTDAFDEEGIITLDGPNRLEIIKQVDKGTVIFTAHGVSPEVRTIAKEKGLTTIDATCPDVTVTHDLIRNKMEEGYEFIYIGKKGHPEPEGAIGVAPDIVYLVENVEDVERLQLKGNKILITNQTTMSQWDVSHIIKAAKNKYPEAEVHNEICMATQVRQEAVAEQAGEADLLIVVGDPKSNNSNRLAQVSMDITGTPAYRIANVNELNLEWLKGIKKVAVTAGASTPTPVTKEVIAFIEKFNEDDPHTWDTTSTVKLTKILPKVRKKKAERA
In words: Kinetic parameters of the enzymatic reaction converting DMAPP to isoamylene by wild-type IspH protein. The class given is biochemical. As to conditions: DMAPP as substrate to produce isoamylene; DMAPP 0-1.0 mM; pH 7.8, 37° C., 1 mM NADPH, ferredoxin/ferredoxin-NADP+ reductase, anaerobic.

Data set [2] relates to plant-derived isoprene synthase (IspS; EC 4.2.3.27). Particulars: DMAPP as substrate to produce isoprene; background art; cited from earlier work.
The nature of data set [3]: In vitro activity assay using DMAPP as a substrate (headspace gas GC-MS, kinetic parameters). The class given is biochemical. As to conditions: 1 mM DMAPP, 0.5 μM protein, 37° C. 1 h. On the procedure: (§1) Under anaerobic conditions, in a sealed 5 ml chromatotube, IspH protein and its mutants were determined for their activity, wherein the reaction system comprised: 150 mM NaCl, 20 mM Tris-HCl (pH 7.8), 2 mM DTT, 1 mM NADPH, 1 mM DMAPP, 20 μM ferredoxin, 5 μM ferredoxin-NADP^+ reductase, and 0.5 μM IspH protein or its mutants (H131N and E133Q) obtained above; the total reaction volume was 500 μl; and the reaction condition was incubation at 37° C. for 1 h.
After the reaction, the headspace gas in the chromatotube was collected, and was subjected to gas chromatography-mass spectrometry (GC-MS).
In order to determine the kinetic parameters of the wild-type IspH protein, DMAPP at different concentrations (0, 0.1, 0.2, 0.3, 0.4, 0.5, 1.0 mM) was used to repeat the experiment.

A short description of data set [4]: In vitro activity assay using IPP as a substrate. The class given is biochemical. On the procedure: as §1
In addition, IPP was used as a substrate to repeat the experiment.

A short description of data set [5]: Acid treatment of the reaction solution to determine DMAPP (isoprene in headspace gas by GC-MS). It is filed as biochemical. As to conditions: reaction solution of the HMBPP assay, 8M H2SO4, 37° C. 30 min; indicates DMAPP. On the procedure: (§2) Under anaerobic conditions, in a sealed 5 ml chromatotube, IspH protein and its mutants were determined for their activity, wherein the reaction system comprised: 150 mM NaCl, 20 mM Tris-HCl (pH 7.8), 2 mM DTT, 1 mM NADPH, 1 mM HMBPP, 20 μM ferredoxin, 5 μM ferredoxin-NADP^+ reductase, and 0.5 μM IspH protein or its mutants (H131N and E133Q) obtained above; the total reaction volume was 500 μl; and the reaction condition was incubation at 37° C. for 1 h.
In addition, after the reaction, the reaction solution in the chromatotube was also analyzed to determine whether IPP and DMAPP were produced. Since DMAPP can spontaneously produce isoprene under acidic conditions, the amount of DMAPP in the reaction solution can be determined by determining the amount of isoprene produced in the reaction solution under acidic conditions. In brief, under anaerobic conditions, 50 μL reaction solution was put in another 5 ml chromatotube, and diluted with cold water to a volume of 500 μL, and an equal volume of 8M H2SO4 was added; then, the chromatotube was sealed immediately, and incubated at 37° C. for 30 min. After the incubation, the amount of isoprene in the headspace gas was determined by the above-mentioned GC-MS method, to determine whether the reaction solution contained DMAPP or not.

The nature of data set [6]: In vitro activity assay using HMBPP as a substrate (headspace gas GC-MS). The class given is biochemical. As to conditions: for Production of 2-methyl-2-butene or not / Production of 3-methyl-1-butene or not / Isoprene produced in the reaction system: 1 mM HMBPP, 0.5 μM protein, 37° C. 1 h, headspace gas; for Isoprene produced in the reaction system: ferredoxin, FNR, NADPH, anaerobic. On the procedure:
as §2
After the reaction, the headspace gas in the chromatotube was collected, and was subjected to gas chromatography-mass spectrometry (GC-MS). In brief, the gas was analyzed by Agilent Technologies 7890B GG/5977A MSD equipped with Agilent HP-PLOT Al2O3/S GC column (25 m, 0.32 mm, 8.00 μm, 7 inch cage), wherein He gas was used as a carrier gas at a flow rate of 2 ml/min. Later, the experimental data of the test sample (peak retention time, peak area, mass spectrogram, etc.) was compared with the experimental data of the standard substance (isoprene, 3-methyl-1-butene and 2-methyl-2-butene) to identify the gas components and perform quantitative analysis.

Take `CC(C)=CCOP(=O)(O)OP(=O)(O)O` [DMAPP, dimethylallyl pyrophosphate]: the maximum reaction activity result in data set [1] is “about 6.2 nmol min^−1 mg^−1”. Besides, the Km value result in data set [2] is on record as “reaches the level of mM”.

B1: wild-type IspH: IspH protein from alkaliphilic Bacillus sp. N16-5, amino acid sequence SEQ ID NO: 2 (protein)
chain: T1 sequence (A0A9Q4B1R3 1-318)
modifications: Bacillus sp. N16-5
As to B1, in data set [3], the “conversion of DMAPP to isoamylene (2-methyl-2-butene and 3-methyl-1-butene)” value was “produce isoamylene”. Moreover, in data set [4], the “catalytic activity on IPP” value is “none”. Further, the “isoprene produced by treating the reaction solution with acid” value in data set [5] is 696.3 μg L^−1 OD^−1. Moreover, in data set [6], the “Production of 2-methyl-2-butene or not” value was “yes”, the “Production of 3-methyl-1-butene or not” value is listed as “yes” and the “Isoprene produced in the reaction system” value is recorded as 104.4 μg L^−1 OD^−1. Also, the “activity of converting HMBPP to isoamylene directly” value in data set [6] (headspace gas in different phases of the HMBPP assay) is given as “does not have the activity of converting HMBPP to isoamylene directly”. The “products formed from HMBPP as a substrate (isoprene, isoamylene, IPP, DMAPP)” value in data set [6] (summary of the HMBPP assay) was “can use HMBPP as a substrate to produce isoprene, isoamylene, IPP and DMAPP”.

B2: IspH-E133Q: IspH mutant, glutamic acid to glutamine at position 133 of SEQ ID NO: 2 (SEQ ID NO: 4) (protein)
chain: T1 sequence (A0A9Q4B1R3 1-318) with E133Q
modifications: Mutant protein E133Q
On to B2, for which the “isoprene produced by treating the reaction solution with acid” value in data set [5] is 6.1 μg L^−1 OD^−1. In data set [6], the “Production of 2-methyl-2-butene or not” value is “no”, the “Production of 3-methyl-1-butene or not” value is “no” and the “Isoprene produced in the reaction system” value turned out to be 106.4 μg L^−1 OD^−1.
